Test results published in IntAct's records for PubMed 10675337.

B1: GA-binding protein subunit beta-1 (Homo sapiens), Q06547-2 (parent)
chain: MSLVDLGKKLLEAARAGQDDEVRILMANGAPFTTDWLGTSPLHLAAQYGHYSTTEVLLRAGVSRDARTKVDRTPLHMAASEGHASIVEVLLKHGADVNAKDMLKMTALHWATEHNHQEVVELLIKYGADVHTQSKFCKTAFDISIDNGNEDLAEILQIAMQNQINTNPESPDTVTIHAATPQFIIGPGGVVNLTDETGVSAVQFGNSSTSVLATLAALAEASAPLSNSSETPVVATEEVVTAESVDGAIQQVVSSGGQQVITIVTDGIQLGNLHSIPTSGIGQPIIVTMPDGQQVLTVPATDIAEETVISEEPPAKRQCIEIIENRVESAEIEEREALQKQLDEANREAQKYRQQLLKKEQEAEAYRQKLEAMTRLQTNKEAV

Variants of: B1
Conditions: with hcfc1_human HCFC1, P51610
Sequence of hcfc1_human HCFC1, P51610 (P51610 whole entry): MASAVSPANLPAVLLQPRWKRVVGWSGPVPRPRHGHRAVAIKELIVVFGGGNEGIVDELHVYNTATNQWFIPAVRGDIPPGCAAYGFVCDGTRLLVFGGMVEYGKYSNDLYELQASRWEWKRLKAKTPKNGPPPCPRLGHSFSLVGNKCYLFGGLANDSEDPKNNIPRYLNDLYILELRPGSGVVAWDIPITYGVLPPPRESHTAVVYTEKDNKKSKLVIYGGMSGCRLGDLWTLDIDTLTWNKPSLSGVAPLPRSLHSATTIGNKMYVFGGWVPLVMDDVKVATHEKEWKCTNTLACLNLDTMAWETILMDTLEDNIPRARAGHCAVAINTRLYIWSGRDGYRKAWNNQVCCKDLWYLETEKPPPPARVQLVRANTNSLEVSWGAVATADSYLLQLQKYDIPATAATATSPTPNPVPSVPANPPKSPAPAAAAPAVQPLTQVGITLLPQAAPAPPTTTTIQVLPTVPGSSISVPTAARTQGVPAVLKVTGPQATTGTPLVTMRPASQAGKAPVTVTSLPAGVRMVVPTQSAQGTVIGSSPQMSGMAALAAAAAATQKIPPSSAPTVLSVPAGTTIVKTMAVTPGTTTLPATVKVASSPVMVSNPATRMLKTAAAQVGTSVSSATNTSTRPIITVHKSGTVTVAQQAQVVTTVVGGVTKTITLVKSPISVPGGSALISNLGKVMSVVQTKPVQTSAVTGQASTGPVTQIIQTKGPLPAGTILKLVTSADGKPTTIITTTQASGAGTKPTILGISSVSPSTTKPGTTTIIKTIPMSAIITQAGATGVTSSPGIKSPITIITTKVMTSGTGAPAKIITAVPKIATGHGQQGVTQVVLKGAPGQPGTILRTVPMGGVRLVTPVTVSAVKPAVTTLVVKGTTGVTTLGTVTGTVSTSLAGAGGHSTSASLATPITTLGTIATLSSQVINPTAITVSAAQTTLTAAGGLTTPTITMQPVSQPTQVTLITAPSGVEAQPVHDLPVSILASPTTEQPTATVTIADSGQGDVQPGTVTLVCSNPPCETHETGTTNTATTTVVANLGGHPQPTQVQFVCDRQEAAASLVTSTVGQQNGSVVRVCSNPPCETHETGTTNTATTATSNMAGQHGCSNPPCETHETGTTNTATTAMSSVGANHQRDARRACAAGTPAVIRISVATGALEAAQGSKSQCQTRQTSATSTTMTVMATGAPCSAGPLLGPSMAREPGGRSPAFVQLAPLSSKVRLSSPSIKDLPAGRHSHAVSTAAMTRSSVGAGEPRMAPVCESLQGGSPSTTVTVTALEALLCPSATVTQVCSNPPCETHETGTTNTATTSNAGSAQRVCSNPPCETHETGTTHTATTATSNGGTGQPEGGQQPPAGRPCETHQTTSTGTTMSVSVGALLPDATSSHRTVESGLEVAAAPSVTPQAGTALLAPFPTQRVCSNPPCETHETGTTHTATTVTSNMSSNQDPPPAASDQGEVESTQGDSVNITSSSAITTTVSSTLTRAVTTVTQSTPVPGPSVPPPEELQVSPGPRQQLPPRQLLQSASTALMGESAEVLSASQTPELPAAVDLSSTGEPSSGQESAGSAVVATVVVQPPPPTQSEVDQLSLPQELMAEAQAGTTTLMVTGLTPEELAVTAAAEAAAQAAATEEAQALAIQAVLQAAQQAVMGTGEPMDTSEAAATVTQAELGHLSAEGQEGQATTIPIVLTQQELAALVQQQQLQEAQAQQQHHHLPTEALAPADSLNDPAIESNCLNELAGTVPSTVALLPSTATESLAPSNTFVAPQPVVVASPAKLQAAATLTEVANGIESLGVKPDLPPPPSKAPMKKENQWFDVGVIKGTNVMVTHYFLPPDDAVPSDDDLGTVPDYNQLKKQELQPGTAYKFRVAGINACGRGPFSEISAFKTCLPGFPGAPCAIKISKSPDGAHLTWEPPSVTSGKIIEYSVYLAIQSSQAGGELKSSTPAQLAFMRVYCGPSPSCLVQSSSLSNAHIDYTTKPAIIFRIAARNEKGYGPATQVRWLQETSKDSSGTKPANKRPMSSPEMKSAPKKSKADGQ
With V295A;V298A the “effect of a mutation on the interaction” value was “decreasing interaction”. For V252A;V253A, the “effect of a mutation on the interaction” value was “decreasing interaction”.
